Laboratory results as given in a protein production outcome set (Wang et al. 2014).

Test: label from the status in PepcDB records

MQNTKLYSLTLIALGAAIIAVLSPLSIPIGIVPVTLQTLAVGLVATVLKARETFFAILLYLLLGFIGIPVFTGGTSGIAVLFGPTGGFLIAFLIMGTLISFGLHQINYKTIPAFIINIVGHLLMLVIGTLWLKFFTNVDWSLALKLGFTPFVIVEIIKAVLVTIFGLALIRALSHTNKYFTN
protein production: failed

MTQNVLNERPAGQKPVALSSFRGCINGLYGDVLQGWAIDITQPDQRPVIEVFVDGASVALARADQHEPNAPHGDHFHGFTVQLRQSLLADANRITAQIANTGIHLEGEIELPSQPPQETAAVASQVWHTGGLRVGGWSWDPQAPHRHVVVTLREGSRVVAQVTCNTHHQALAYRATSDHGFAIDLPWELADGKLHVIEVTNDLGQSLPGSPIRLRCRPEGLEGLLHQLELKPDAAMQALVAEVAKEQSSRLPKSAGWQHYPRWYDAFQKREPIAAIPSRFRPGLLLLSEGDATLEKISLDSLGDDAESVHQLAKAAPADLLPAVEQLLAAGCDSIIQIAAGDKLAPRAMAQLRNLLEEGCAWAYADCDRDGPQGQRSQPWFKPVWDIDLFIGADIFSTGAIFSAAIVKEALALLKAGKKQSAINRHDLIAGIALATELNGRSVTHLPRVLYHRSSDTCTSPEQAAPSKQRKDAVAWLCQGLAPGAHVSAVPDYPALLRAHWPLPEQLPRVSLIVPTRDQYKLLHACIEGLLNNTDYPDLEIIVVDNQSTDPQTLAYLAELKQRGVKILAHPHPFNYSTINNRAASAATGELIGLVNNDIEIIESGWLKEMVSQALRPGIGAVGAKLLWPNRMVQHGGVVVGVNGLAAHAGNTLEQRDAGYLGMNQVTRRQSAVTAACLLLRKSLFDSIQGLDERAFPVAFNDVDLCLRIHELGLRNVWTAFAQLIHAESASRGKDISPEKMARAQREQQLFTERWSVSYRDPYYHPALSLDYLTGPYGGLSLPPEPEYCAPRKLASSETHGHIYLADPS
protein production: failed

MSLRSKRVLVVEDNPDDIALIRRVLDRKDIHCQLEFVDNGAKALYQVQQAKYDLIILDIGLPIANGFEVMSAVRKPGANQHTPIVILTDNVSDDRAKQCMAAGASSVVDKSSNNVTDFYGRIYAIFSYWLTVNHCQEGHHHHHH
protein production: not failed

MILLYLHIYEQKGSGTLNPVAFTLFGLEIRWYGILIATGVILGLFMAYSNSKLREIEYDSVLDIILISLPIGIIGARLYYVIFQFKSYNGNIIDMINIRNGGLAIHGGLIFGCLAAYIYSRYKKLSFLKLMDIAAPSIILAQALGRWGNFFNGEAHGGPVTYSFIEKFPKFIQKGMTIDGMYYNPTFLYESTWDFVTFIILMLLIRKCKNKGVVFFGYVGLYSLGRFFIEGMRTDSLMLGPIRVAQLVSILGMLISLGFITFSYVKTKRISK
protein production: failed

MSLTGRAFAIPLRTRFRGITVREGMLVRGAAGWGEFSPFAEYGPRECARWWAACYEAAELGWPAPVRDTVPVNATVPAVGPEEAARIVASSGCTTAKVKVAERGQSEANDVARVEAVRDALGPRGRVRIDVNGAWDVDTAVRMIRLLDRFELEYVEQPCATVDELAEVRRRVSVPIAADESIRRAEDPLRVRDAEAADVVVLKVQPLGGVRAALRLAEECGLPVVVSSAVETSVGLAAGVALAAALPELPYACGLATLRLLHADVCDDPLLPVHGVLPVRRVDVSEQRLAEVEIDPAAWQARLAAARAAWEQVEREPGPEGHHHHHH
protein production: not failed

MATVERAMMLKTMRKHGVTLALFAAGSTGLTAAINELTKSTIDQQAALQQKALFDQVLPADRYNNDLLKSCYLVSAPALGKGQHKVWIAKNNDRPIGAVMEATAPDGYSGAIQLLVAADFSGTVLGTRVTEHHETPGLGDKIELRLSDWITHFAGKVIHGQGDSHWAVKKDGGDFDQFTGATITPRAVVNAVKRAGLYAQTLPAQLPEFTACGE
protein production: failed

MADSSRADFWEQRYREGVTPWEGGQLPPRARAFFAAQRPLRVLMPGCGSAADLPPLLAMGHDVLAVDFSEAAIELAARQWPEAAGRLLLADFFQLQMPAFDCLFERAFLCALPVGMRSQYAERVAALIAPGGALAGVFFVADTERGPPFGMQAEALRELLSPWFELEEDLALDESVAVFRNRERWMVWRRRGFDLGQVSEHESTGNCGAHRKE
protein production: failed

MPPPTASTPDDSADPGPDFADVPPTDLVKVGFIFRPHGLDGELKIDPSATDDPARFEVLPTVFVGPHPRRVVRHDIASVRYQKTKRGITVILGLDGIVDRDDAEAVAKMDVFATEAALGLEDDELFADDLVGWTVVTEEGAVQGTVADFMEMPAQDLFVVRTPEDTEAMIPAIDDFIIEIDEEAERIVVRPIDGLMDALEHHHHHH
protein production: failed

MSTAAETTGGDIEPWEEVTPDAARRLLVAAVEAFAERGYHATTTRDIAGRAGMSPAALYIHYKTKEELLHRISRIGHTRAVAILRSAAQGEGSAAERLADAVSSFVRWHAGRRTTARVVQYELDALGPEAREEILTLRRQCDAAVRGIIDDGVAAGEFDVPDVKGTTLAVLSLCIDVARWFNVNGPRTPDEVGALYADLVLRMVGAEPSGATAQR
protein production: not failed

MKDSIDFGNMEIPRLFRKLLIPTVLGMVFSAVFVITDGIFVGKGIGSDALAAVNITAPLFMITTGIGLMFGVGASVVASIHLSQGKRKVASINITQALAFSALLILVLSALCCYFAEPIGRLLGSSERLLPLVVEYMNWYVPFLVFYLLLSAGMFYIRLDGSPNYAMMCNAVSAIINIILDYVFIFQLGWGMMGAAFATSLGTMVGGLMTLIYLLRFSRNVGIYRIKLSRKSMRLTCRNIGYMIRLGSSAFISEASIASMMFLGNYVFISHLGESGVAAFSIVCYFFPIIFMVYNAIAQSAQPIISYNFGQQNPGRVARTIRLALKTALGCGIFFFAATLVFNHQIVGLFIDKSYQAYDIAVNGIPYFAVGYLFFALNIVGIGYYQSIERARRATVITLFRGTLFMLAGFLLLPPVLGVRGIWLAVPLAELLTLLLIIGIYLKDSFAVRR
protein production: failed

MKIVVNNQSTLAAELMIVAQENLQKLVEQTKCPNSKALLDRRIFKAKSGEVLPLLHGDKIVILLGLGLRQDFIASEYDKIIAKAAEQLKKLAIKEISVDIDYAFENDNVKQFTLDTVRALISETYVFDQLKTEKENYSLEQIELVYSGDQDIEDSAKIGSAIACGQNYAKDLQNLPANICTTDYMLNEARELTSKYATFSLDYLDQDAMAELGMGCALAVGRGSYMSNYTVCMEYKGGNEGDAPIVLVGKGLVFDNGGICIKQAAGMDSMKMDMGGVAAVMGTMKAIAMLNLPVNVVGVMGLAENAVDARSYRPGDVLKSMKGITVEVSNTDAEGRLVLCDTLTYIGKYKPKAVIDLATLTGAMIISLGDAYSGMFANSDKLANSLEQAANASNDLIWRLPLHKPYLKKIESKVADMDNCGRDRSAGSIVAALFLSKFTEDYEWAHLDIAGSAMGDFASCKASGRPVPLLVHYLISQAK
protein production: not failed

MEIRMAAAADFAEIWPLFQAVISSGDTYVFTPDTPEQDAYDYWFGAGVRCWVAVHEGRVVGMYKLIDNQRGLGNHVANASFMVDGEARGLGIGKALGLHCIKQATDLGYRAIQFNFVVSTNTLAVALWQKLGFEIIATLPGAFNHSQLGYVDAYVMHRALLPN
protein production: failed

MNADEFVEAFNNAKDLTELELLAELGKSISDDLEGHEKGKVLGTLGNIYYALHRLKEAEEAYLEALNVYLKLSEEDEGFLPYVVGCLYNLGNLYQVSRKFAEAEKAYTDALKVLGDVRNDQRLAILTALGTMYAKLDMKEHAERCLVEAFEMAKVKGDARLLGTLLNNLAVVYQRGGRKREAAMLLKMALDALERVGEDLGIAAVLQNLLPYLDEDELRRVMERLESFGELPIDLKAKIAYFKARRAEEKGEDSAKHYMEAACLGFMAYRNFGFQSINFMHCLDKVIESDSELREDAVVLKKVILKYYYGSQKVEIDFDSRVGRMIKAVLEGDDIYEDGILEDTVRLIAEDLLKAGTKV
protein production: failed

MVKNGRDPPERNFYCTEKEETAPPLMNIFDDFKSQIEREIMTIFLKTAYESLLSIAISTEIIVPEDETRSLEKEVIKLMKLMKLMNLLEPLGNRVSRLMGLVRNAEEHRERIVKRNQESDVREIFKIAASRTKTRFHKALQKESSSSSMKWGFTEAKDEVLSLGIRLTHALIKLTLLRVKKNDREKQLLLRDWIFDESYEKQSALMYLLDYLLYKAEEFAASVVVEESGNDHHRQHILEEDRIGDDILTRISEAIFILQLLAMNLSRNVLTERDLIATNDQLLRCVRDVKFVESTIVVLMKGRSLKLKHKGKQSLLMKERTETIFWAKVNAELNKCWGESFWKYVEAARHLEAVVSSQQIVYTLCKLFVFGFES
protein production: failed

MEVHAADQYLVAPGEADLLEVHARLAGTGLFPPFPPVELPGGVGGLVARGGFAQTFFFPAEVLGLTFRTPKGRRVRAGGVVVKNVQGYDLVRLFVGSFGLLGRAEEVVLRLRPGRAQAFLRRPFSGSFPRLVPTPRFLFALEDEEGPWLYAYHFGHPKEVERFREAFGGEEARPLDLRPRFPRGLGLGEGPLWDLRFRYQDGGASPPPPPAFLRLARVL
protein production: not failed

MSLKDKKILIVEDSKFQAKTIANILNKYGYTVEIALTGEAAVEKVSGGWYPDLILMDIELGEGMDGVQTALAIQQISELPVVFLTAHTEPAVVEKIRSVTAYGYVMKSATEQVLITIVEMALRLYEANVHANEGHHHHHH
protein production: not failed

MSDSWTERWNDRYSNEIFAYGEKPNNYLKAQLENLQPGTILFAAEGEGRNAVFAACLGWDVQAFDISSEGKKKAFQLAEKNQVTIAYQVGQLETLGYTAGQFDALALIYAHFPATVKSAYHRILSSYVRSGGYIIFEAFSKKHLDYLAKNEQVGGPKEFDMLFSIEEIKADFPDYEILELEEKEIELNEGQFHNGTGSVIRFTGRKKLEHHHHHH
protein production: failed

MEYQHWLREAISQLQASESPRRDAEILLEHVTGRGRTFILAFGETQLTDEQCQQLDALLTRRRDGEPIAHLTGVREFWSLPLFVSPATLIPRPDTECLVEQALARLPEQPCRILDLGTGTGAIALALARERPDCEITAVDRMPDAVALAQRNAQHLAIKNIHILQSDWFSALAGQQFAMIVSNPPYIDEQDPHLQQGDVRFEPLTALVAADSGMADIVHIIEQSRNALVSGGFLLLEHGWQQGEAVRQAFILAGYHDVETCRDYGDNERVTLGRYYQ
protein production: failed

MINQRMIHMKNTKLLLAIATSAALLTGCQNTHGIDTNMAISSGLNAYKAATLSDADAKAIANQGCAEMDSGNQVASKSSKYGKRLAKIAKALGNNINGTPVNYKVYMTSDVNAWAMANGCVRVYSGLMDMMNDNEIEGVLGHELGHVALGHSLAEMKASYAIVAARDAISATSGVASQLSRSQLGDIAEGAINAKYSRDKESEADDFSFDLLKKRGISTQGLVGSFETLASLDGGRTQSMFDSHPPSTERAQHIRDRIASGKLEHHHHHH
protein production: failed

MSLEGIKQINFQSINVVENLEEAKEGIPTIIMFKTDTCPYCVEMQKELSYVSKEREGKFNIYYARLEEEKNIDLAYKYDANIVPTTVFLDKEGNKFYVHQGLMRKNNIETILNSLGVKEGHHHHHH
protein production: not failed

MAVSHSVKERTISENSLIILLQGLQGRVTTVDLRDESVAHGRIDNVDAFMNIRLAKVTYTDRWGHQVKLDDLFVTGPNVRYVHIPDDVNITSTIEQQLQIIHRVRNFGGKGQGRWEFPPKNCK
protein production: failed

MAATAREDGASGQERGQRGCEHYDRGCLLKAPCCDKLYTCRLCHDNNEDHQLDRFKVKEVQCINCEKIQHAQQTCEECSTLFGEYYCDICHLFDKDKKQYHCENCGICRIGPKEDFFHCLKCNLCLAMNLQGRHKCIENVSRQNCPICLEDIHTSRVVAHVLPCGHLLHRTCYEEMLKEGYRCPLCMHSALDMTRYWRQLDDEVAQTPMPSEYQNMTVDILCNDCNGRSTVQFHILGMKCKICESYNTAQAGGRRISLDQQ
protein production: failed

MAQSFLLMGALIQHHLKGEKADLLTPEKLLEAANKQGTVPSRVRYQWMEDEETGRLKAVGYHTSMESGRDQVRVRLLKHDFPNNRYEFWEEGATGPTILWTPDNPGIELPTDTAHGEQPVIPSAIPGLEIPEMDDVSILATPMPDEKDFRDYILVFPENAFPPIYVYLSKKIDTPIWLEHHHHHH
protein production: not failed
